Data set [1] deals with T1, LIN54 DBD (Homo sapiens, UniProt Q6MZP7 515-646). The data set can be described thus: fluorescence polarization; ITC (25 C) and FP: 20 mM Tris, 150 mM NaCl, 0.1% Tween 20, pH 8.0; NMR: 35 mM MES, 75 mM NaCl, 5% D2O, pH 6.0, 25 C. The settings on record: protein: recombinant, tags: N-terminal GST with TEV site, cleaved, blunt. A general note: Fluorescence polarisation rises when a labelled molecule tumbles more slowly, as on binding a larger partner.

The target of the next data set is LIN54 DBD Y610F (Homo sapiens, UniProt Q6MZP7 515-646, Y610F). The data set can be described thus: ITC; ITC (25 C) and FP: 20 mM Tris, 150 mM NaCl, 0.1% Tween 20, pH 8.0; NMR: 35 mM MES, 75 mM NaCl, 5% D2O, pH 6.0, 25 C. The settings on record: protein: recombinant; tags: N-terminal GST with TEV site, cleaved; blunt. In general terms: ITC needs no label: the signal is the heat of the interaction.
Sequence of LIN54 DBD Y610F (Q6MZP7 515-646 Y610F): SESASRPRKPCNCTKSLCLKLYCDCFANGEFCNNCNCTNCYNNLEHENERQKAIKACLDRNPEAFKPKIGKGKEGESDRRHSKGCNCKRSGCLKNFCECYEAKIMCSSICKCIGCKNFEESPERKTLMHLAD

In data set [2] the target is T1, LIN54 DBD. The data set is described as above. The settings on record: protein: recombinant; tags: N-terminal GST with TEV site, cleaved; blunt.
For another data set, the target named is LIN54 DBD Y610A (Homo sapiens, UniProt Q6MZP7 515-646, Y610A). The description is as above. The settings on record: protein: recombinant; tags: N-terminal GST with TEV site, cleaved; blunt.
Sequence of LIN54 DBD Y610A (Q6MZP7 515-646 Y610A): as the sequence (Q6MZP7 515-646 Y610F) above, with F96A counted along it
The target in a further data set is LIN54 DBD Y536F (Homo sapiens, UniProt Q6MZP7 515-646, Y536F). The description is as above. To be noted: protein: recombinant; tags: N-terminal GST with TEV site, cleaved; blunt.
Sequence of LIN54 DBD Y536F (Q6MZP7 515-646 Y536F): as the sequence (Q6MZP7 515-646 Y610F) above, with Y22F, F96Y counted along it
For the next data set, the target named is LIN54 DBD Y536A (Homo sapiens, UniProt Q6MZP7 515-646, Y536A). The data set is described as above. To be noted: protein: recombinant; tags: N-terminal GST with TEV site, cleaved; blunt.
Sequence of LIN54 DBD Y536A (Q6MZP7 515-646 Y536A): as the sequence (Q6MZP7 515-646 Y610F) above, with Y22A, F96Y counted along it
A further data set concerns the target LIN54 DBD Y536R (Homo sapiens, UniProt Q6MZP7 515-646, Y536R). The data set is described as above. The settings on record: protein: recombinant; tags: N-terminal GST with TEV site, cleaved; blunt.
The target in a further data set is LIN54 DBD Y610R (Homo sapiens, UniProt Q6MZP7 515-646, Y610R). The description is as above. The settings on record: protein: recombinant; tags: N-terminal GST with TEV site, cleaved; blunt.
Sequence of LIN54 DBD Y610R (Q6MZP7 515-646 Y610R): as the sequence (Q6MZP7 515-646 Y610F) above, with F96R counted along it
The target of data set [3] is T2, LIN54 DBD-C (Homo sapiens, UniProt Q6MZP7 589-646). The data set can be described thus: NMR HSQC titration; 35 mM MES, 75 mM NaCl, pH 6.0, 25 C; ITC (25 C) and FP: 20 mM Tris, 150 mM NaCl, 0.1% Tween 20, pH 8.0; NMR: 35 mM MES, 75 mM NaCl, 5% D2O, pH 6.0, 25 C. The settings on record: protein: recombinant; tags: N-terminal GST with TEV site, cleaved; blunt.
T2 sequence (Q6MZP7 589-646): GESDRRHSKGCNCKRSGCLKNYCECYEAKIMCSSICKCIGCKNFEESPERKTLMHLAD
In a further data set the target is LIN54 DBD-N (Homo sapiens, UniProt Q6MZP7 515-574). In words: fluorescence polarization; ITC (25 C) and FP: 20 mM Tris, 150 mM NaCl, 0.1% Tween 20, pH 8.0; NMR: 35 mM MES, 75 mM NaCl, 5% D2O, pH 6.0, 25 C. The settings on record: protein: recombinant; tags: N-terminal GST with TEV site, cleaved; label: 3' TAMRA on strand 1; blunt.
Sequence of LIN54 DBD-N (Q6MZP7 515-574): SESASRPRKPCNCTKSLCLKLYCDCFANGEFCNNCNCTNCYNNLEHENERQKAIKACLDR
Data set [4] addresses T2, LIN54 DBD-C. Described as above. The settings on record: protein: recombinant; tags: N-terminal GST with TEV site, cleaved; label: 3' TAMRA on strand 1; blunt.

T1 sequence (Q6MZP7 515-646): as the sequence (Q6MZP7 515-646 Y610F) above, with F96Y counted along it
Sequence of LIN54 DBD Y536R (Q6MZP7 515-646 Y536R): as the sequence (Q6MZP7 515-646 Y610F) above, with Y22R, F96Y counted along it

B1: CHR13 (FP) (dsDNA)
DNA 1: GAGTTTGAAACTG
DNA 2: CAGTTTCAAACTC
On to B1, for which, in the data set with LIN54 DBD [1], the Kd (usually the equilibrium constant for the complex coming apart) came out at 5 ± 2 µM.

B2: CHR13 (dsDNA)
DNA 1: GAGTTTGAAACTG
DNA 2: CAGTTTCAAACTC
For the molecule B2, the binding result with LIN54 DBD Y610F, with LIN54 DBD Y610A, with LIN54 DBD Y536F, in the data set with LIN54 DBD Y536A, with LIN54 DBD Y536R and in the data set with LIN54 DBD Y610R was “no binding” each time. The Kd stood at 2.8 ± 0.1 µM with LIN54 DBD [2] and 500 ± 100 µM with LIN54 DBD-C [3].

B3: CHR27 (dsDNA)
DNA 1: CCTTTAGCGCGGTGAGTTTGAAACTGTAA
DNA 2: TTACAGTTTCAAACTCACCGCGCTAAAGG
On to B3, for which, in the data set with LIN54 DBD [1] (label: 3' TAMRA on strand 1), the Kd came out at 0.43 ± 0.08 µM. Further, the binding result in the data set with LIN54 DBD-N and in the data set with LIN54 DBD-C [4] was “no binding” in each case.

The values are drawn from paper PMC4974476, “Structural basis for LIN54 recognition of CHR elements in cell cycle-regulated promoters”.
